Measurements published in PMC5779224 (2017).
Where a chain is given by its changes, count along the chain named.

What was measured:
[1] = target: T1, AnkB MBD 'site-2' mutant (Ile267Gln, Leu300Gln) (human, UniProt Q01484-2 28-847, Ile267Gln | Leu300Gln); test: ITC
T1 sequence: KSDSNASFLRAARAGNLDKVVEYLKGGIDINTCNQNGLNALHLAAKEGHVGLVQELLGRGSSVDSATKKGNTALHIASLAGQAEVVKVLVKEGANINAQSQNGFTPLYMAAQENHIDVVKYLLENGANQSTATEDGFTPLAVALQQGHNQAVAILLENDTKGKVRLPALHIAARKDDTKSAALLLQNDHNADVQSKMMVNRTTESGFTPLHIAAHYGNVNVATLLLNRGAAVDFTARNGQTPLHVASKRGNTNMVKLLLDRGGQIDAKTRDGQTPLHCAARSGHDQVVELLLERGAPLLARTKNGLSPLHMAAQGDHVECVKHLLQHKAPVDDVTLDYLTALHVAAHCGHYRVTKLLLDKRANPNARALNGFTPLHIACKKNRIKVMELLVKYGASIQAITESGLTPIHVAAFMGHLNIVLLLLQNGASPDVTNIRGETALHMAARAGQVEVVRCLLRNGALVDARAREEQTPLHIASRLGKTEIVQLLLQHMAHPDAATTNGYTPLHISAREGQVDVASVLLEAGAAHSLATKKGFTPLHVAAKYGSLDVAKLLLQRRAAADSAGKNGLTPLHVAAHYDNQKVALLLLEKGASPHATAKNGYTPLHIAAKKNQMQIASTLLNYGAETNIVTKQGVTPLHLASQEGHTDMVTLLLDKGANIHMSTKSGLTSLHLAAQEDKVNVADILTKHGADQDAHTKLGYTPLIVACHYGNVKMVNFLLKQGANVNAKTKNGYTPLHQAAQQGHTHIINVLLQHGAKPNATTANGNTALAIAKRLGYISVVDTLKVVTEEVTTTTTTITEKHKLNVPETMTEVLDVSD

[2] = target: T2, AnkB 28–847 (MBD + partial AI-c) (human, UniProt Q01484-2 28-847); test: ITC
T2 chain: T1 sequence with Q240I, Q273L

Q: How did the Kd [1] turn out when EDLKELGDDSLPSSQFLDGMNYLRYSLEGGRS (domain or fragment) [AnkB_AI-b (aa 865–896)] was run?
A: 8.5 µM

Q: What about the Kd [2] of the same binder?
A: 3.7 µM
